In article PMC12871931, “The importin‐alpha superfamily engages in ethylene signaling by shuttling ETHYLENE INSENSITIVE 2 from the endoplasmic reticulum to the nucleus” (The Febs Journal, 2025) one finds Kd data, which are given here for two substances.

By Kd is commonly meant the free concentration of one partner at which half of the binding sites on the other are occupied at equilibrium, for simple one-to-one binding. A higher Kd goes with a looser complex.

The target of this test is TAMRA‐NOP‐1 (EIN2 NLS peptide, N‐terminally labeled with 5‐TAMRA) (Arabidopsis thaliana). Nature of the test: fluorescence polarisation; direct titration: TAMRA-NOP-1 constant at 250 nM, IMPα protein concentration varied; 50 μL samples; LS55 spectrometer; Kd by Logistic Fit in Origin; three independent measurements.

The substance “ΔIBB_IMPα1 (importin α1 lacking the IBB domain), Arabidopsis thaliana, recombinant (domain or fragment)” gave a Kd of 3.2 µM. For the substance “IMPα7_ΔIBB (importin α7 lacking the N-terminal importin β binding domain), Arabidopsis thaliana, recombinant (domain or fragment)”, the Kd came to 3 µM.
